{"source": "paper PMC6746316", "target": "Xenopus tropicalis ALDH16B1 (Xenopus tropicalis)", "assay": "SEC"}
{"substance": "Xenopus tropicalis ALDH16B1 (enzyme)", "values": [{"measurement": "stoichiometry N", "result": 2}]}
